Literature values as cited in patent US20040115213A1, “Use of IL-2 receptor antibodies” (priority 2002, published 2004).

How the values were obtained:
[1] = patients given amphotericin-B
[2] = human patients
[3] = monkeys; Hakimi et al.

Molecule | patients experiencing some degree of nephrotoxicity [1] | immunogenicity (HAMA response) [2] | immunogenicity relative to mouse antibody [3]
CC1OC(O[C@H]2/C=C/C=C/C=C/C=C/C=C/C=C/C=C/[C@H](C)[C@@H](O)[C@@H](C)[C@H](C)OC(=O)C[C@H](O)C[C@H](O)CC[C@@H](O)[C@H](O)C[C@H](O)C[C@]3(O)C[C@H](O)C(C(=O)O)[C@H](C2)O3)C(O)C(N)C1O (stereo partly drawn) [amphotericin-B, [1R-(1 R *,3 S *, 5 R *, 6 R *,9 R *,11 R *,15 S *,16 R *,17 R *,18 S *, 19 E,21 E, 23 E,25 E, 27 E,29 E,31 E,33 R *,35 S *,36 R *,37 S *)]-33-[(3-Amino-3,6-dideoxy-(beta)-D-mannopyranosyl)oxy]-1,3,5,6,9,11,17,37-octahydroxy-15,16,18-trimethyl-13-oxo-14,39-dioxabi-cyclo[33.3.1]nonatriaconta-19,21,23,25,27,29,31-heptaene-36-carboxylic acid] | Over 80% |  | 
humanized anti-Tac: humanized monoclonal antibody that binds to the p55 subunit of the human IL-2 receptor, described in U.S. Pat. No. 5,530,101 |  | (essentially) non-immunogenic | reduced immunogenicity relative to mouse anti-Tac
